The results in this text go back to patent US20180186873A1 (CEPHALON, published 2018).

Read-outs that look alike come from different tables or passages of the source.

Experiment in all cases: SPR
For orientation: Surface plasmon resonance follows binding to a sensor surface in real time, without labels.

Experiment [1] has as its target T1, recombinant human IL-5 (human, UniProt P05113 20-134).
The target in experiment [2] is T1, recombinant human IL-5. This is another data set of the same source.
In experiment [3] the target is T1, recombinant human IL-5. The source holds these as a separate data set.
The target in experiment [4] is T1, recombinant human IL-5. This is another data set of the same source.
The target in experiment [5] is T1, recombinant human IL-5. This is another data set of the same source.
Experiment [6] has as its target T1, recombinant human IL-5. The source holds these as a separate data set.
In experiment [7] the target is T1, recombinant human IL-5. The source holds these as a separate data set.
The target of experiment [8] is T1, recombinant human IL-5. This is another data set of the same source.
Experiment [9] deals with T1, recombinant human IL-5. The source holds these as a separate data set.

B1: 3A5.040 (antibody, human IgG4 S228P, lambda)
heavy: not shown
light: SYVLTQPPSVSVAPGQTARITCGGNNIGSKNVYWYQQKPGQAPVLVVHDDSDRPSGIPERFSGSNSGNTATLTISRVEVGDEADYSCQVWDSSSDHVVFGGGTKLTVLGQPKAAPSVTLFPPSSEELQANKATLVCLISDFYPGAVTVAWKADSSPVKAGVETTTPSKQSNNKYAASSYLSLTPEQWKSHRSYSCQVTHEGSTVEKTVAPTECS
What is called Kd is the constant that tells how readily two partners part at equilibrium. One may read the koff as a measure of how fast the partners let go of each other. Usually kon stands for the rate constant with which the complex forms. On to B1, for which the Kd in the experiment with recombinant human IL-5 [1] came out at 0.173 nM; in the experiment with recombinant human IL-5 [2], 0.168 nM; in the experiment with recombinant human IL-5 [3], 0.15 nM; with recombinant human IL-5 [4] it was 0.2 nM; with recombinant human IL-5 [5], 0.174 nM; with recombinant human IL-5 [6], 0.168 nM. Further, the equilibrium dissociation constant (Kd) is 0.193 nM with recombinant human IL-5 [7] and 0.16 nM in the experiment with recombinant human IL-5 [8]. Besides, the dissociation rate constant (koff) came to 0.000243 s⁻¹ in the experiment with recombinant human IL-5 [1]; 0.00023 s⁻¹ in the experiment with recombinant human IL-5 [2]; 0.000215 s⁻¹ in the experiment with recombinant human IL-5 [3]; 0.000284 s⁻¹ in the experiment with recombinant human IL-5 [4]; 0.000252 s⁻¹ with recombinant human IL-5 [5]; 0.000239 s⁻¹ with recombinant human IL-5 [6]. For the same molecule, the values for the dissociation rate constant (koff) with recombinant human IL-5 [7] and in the experiment with recombinant human IL-5 [8] were 0.000285 s⁻¹ and 0.000232 s⁻¹, respectively. Moreover, the kon is 1.41e+06 M⁻¹ s⁻¹ in the experiment with recombinant human IL-5 [1]; 1.37e+06 M⁻¹ s⁻¹ with recombinant human IL-5 [2]; 1.43e+06 M⁻¹ s⁻¹ with recombinant human IL-5 [3]; 1.42e+06 M⁻¹ s⁻¹ with recombinant human IL-5 [4]; 1.45e+06 M⁻¹ s⁻¹ with recombinant human IL-5 [5]; 1.48e+06 M⁻¹ s⁻¹ in the experiment with recombinant human IL-5 [7]. The association rate constant (kon) in the experiment with recombinant human IL-5 [8] was determined as 1.45e+06 M⁻¹ s⁻¹; with recombinant human IL-5 [9], 1.43e+06 M⁻¹ s⁻¹.
